Test results: article PMC7363588, “Mapping of the FGF14:Nav1.6 complex interface reveals FLPK as a functionally active peptide modulating excitability” (Physiological Reports, 2020)

B1: FLPK tetrapeptide (peptide)
peptide: FLPK

Legend:
[1] = system: Nav channels; conditions: peptide sequences derived from the LITFILKK motif of Navβ4 cytoplasmic tail; ref Grieco, Malhotra, Chen, Isom, & Raman, 2005; White et al., 2019; cited from earlier work
Source text: The presence of other accessory proteins that directly interact with Nav1.6 in the native system may contribute to the reported activity of FLPK. A critical determinant required for repetitive firing in MSN and Purkinje neurons is the Navβ4 accessory subunit (Ji et al., 2017; White et al., 2019).

[2] = biological target: T1, FGF14-1b (aa 64-252), purified recombinant (human) (UniProt Q92915); assay: SPR; Biacore T100, 25°C; FGF14 (RU 16,000), FGF14 V160A (RU 18,000) or Nav1.6 C-tail (RU 12,000) amine-coupled on CM5 chip; peptides 1-100 µM in HBS-P+ at 50 µl/min, 180 s association, 180 s dissociation; 1:1 binding model
T1 sequence: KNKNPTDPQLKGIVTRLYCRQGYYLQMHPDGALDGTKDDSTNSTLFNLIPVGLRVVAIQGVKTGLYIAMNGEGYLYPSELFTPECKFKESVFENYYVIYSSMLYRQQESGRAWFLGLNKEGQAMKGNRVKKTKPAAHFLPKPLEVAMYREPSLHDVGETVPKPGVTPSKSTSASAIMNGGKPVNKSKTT

Molecule | effect on fast inactivation and Na^+ currents [1] | koff [2] [s⁻¹] | kon [2] [M⁻¹ s⁻¹]
LITFILKK | prevent stable fast inactivation and generate resurgent and persistent Na^+ currents through a voltage‐dependent open‐channel block |  | 
B1 |  | 0.000431 | 84.4
